Assay results taken from the supplement of paper PMC9170038.

Test system: MS2 coat protein
Assay: apparent KD of MS2 coat protein; designed switch direction (-1 OFF switch, 1 ON switch): -1; higher = weaker reporter binding
Procedure, shortened: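 Designed RNA switches with common flanks were made on Illumina chips by stalled E. coli RNA polymerase. Titration with SNAP-549-labelled MS2 coat protein doubled from 0.7 or 1.5 nM up to 3 µM. Apparent KD is each design's median over clusters after curve-fitting normalised fluorescence.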

[1] = Eterna round: R95, input ligand: microRNA oligo, concentration not stated
[2] = Eterna round: R95, input ligand: FMN 200 uM
[3] = Eterna round: R95, input ligand: none
[4] = input ligand: microRNA oligo, concentration not stated

Sequence: UAAAGAUAAGGAUAUUGAAGGUUCGACAUGAGGAUCACCCAUGUUAUGUUGGAAAAGGGACAAGAAGGUAUGAAAU [salish99_ex5_r4_207] (Eterna round: R97, puzzle: Exclusion 5)
- apparent KD of MS2 coat protein (input ligand: FMN 200 uM): 0.0359 µM
- apparent KD of MS2 coat protein (input ligand: none): 0.037 µM

Sequence: UCCUCACAUGAGGAUCACCCAUGUUAGGAUAUCUCGGUGCCCUGCAGGCAGUGGCACCAGAGAAGGAACGUGCA [Querra] (puzzle: Exclusion 1)
- apparent KD of MS2 coat protein [1]: 0.0188 µM

Sequence: AUAAUGUCAGGAUAUCGAACUUACUACUUCGGUAGUAAGUUCGAGAAGGGACAUGAGGAUCACCCAUGUGAUCA [E4/1-A4] (Eterna round: R97, puzzle: Exclusion 4)
- apparent KD of MS2 coat protein (input ligand: FMN 200 uM): 0.0418 µM
- apparent KD of MS2 coat protein (input ligand: none): 0.109 µM

Sequence: UAUAAAAUAUAGGAUAUCGAAUAUAUUAUUUAACGAGAAGGAUGAACAUGAGGAUCACCCAUGUGGUAUCAUGG [Mat - Exclusion 6 - JL Mod - D37] (puzzle: Exclusion 6)
- apparent KD of MS2 coat protein [2]: 0.199 µM
- apparent KD of MS2 coat protein [1]: 0.255 µM
- apparent KD of MS2 coat protein [3]: 0.415 µM

Sequence: AUAUUAAUAUAGGAUAUCGAAUUUAUAAAUUAUCGAGAAGGAUAAACAUGAGGAUCACCCAUGUGGUAUCAUGG [Mat - Exclusion 6 - JL Mod - D42] (puzzle: Exclusion 6)
- apparent KD of MS2 coat protein [2]: 0.239 µM
- apparent KD of MS2 coat protein [1]: 0.222 µM
- apparent KD of MS2 coat protein [3]: 0.346 µM

Sequence: CUUUAGACAGGAUAUACUUCCGUGGUCGUAGAGUUACACAGACAUGAGGAUCACCCAUGUAGAAGGGUCAAGCU [Eternabot (L2) Solution 94] (Eterna round: R97, puzzle: Exclusion 2)
- apparent KD of MS2 coat protein (input ligand: FMN 200 uM): 0.0762 µM
- apparent KD of MS2 coat protein (input ligand: none): 0.0847 µM

Sequence: GAGGUGUUAGGAUAUCGGAGAUGGAGACCAACGGGAUGAGCCGAGAAGGAACAUGAGGAUCACCCAUGUAGGUG [JR_Exclu4_Sub032] (puzzle: Exclusion 4)
- apparent KD of MS2 coat protein [2]: 0.345 µM
- apparent KD of MS2 coat protein [1]: 0.755 µM
- apparent KD of MS2 coat protein [3]: 0.763 µM

Sequence: GCCAGAGCAGGAUAUUCAAUAUCUCACAUGAGGAUCACCCAUGUCCAGCGAAAGCUGGAGGGAGAAGGGCUCUGGC [Fiskers Ex 5 - 9] (puzzle: Exclusion 5)
- apparent KD of MS2 coat protein [2]: 0.0421 µM
- apparent KD of MS2 coat protein [1]: 0.0573 µM
- apparent KD of MS2 coat protein [3]: 0.0616 µM

Sequence: CAGUGACAUGAGGAUCACCCAUGUUAGGAUAUCCGCAAAGGGAGUAGGAUUCCCAUUUGGAGAAGGGACAGGUG [Eternabot (L1) Solution 95] (Eterna round: R97, puzzle: Exclusion 1)
- apparent KD of MS2 coat protein (input ligand: FMN 200 uM): 0.0725 µM
- apparent KD of MS2 coat protein (input ligand: none): 0.0526 µM

Sequence: GCAAGACGAGGAUAUUGAGAAGGGAACAUGAGGAUCACCCAUGUGGUGGUUUCGACCGGUCGAGAAGGCGUAGAAC [EX5 B.6] (Eterna round: R97, puzzle: Exclusion 5)
- apparent KD of MS2 coat protein (input ligand: FMN 200 uM): 1.15 µM
- apparent KD of MS2 coat protein (input ligand: none): 0.957 µM

Sequence: AUGGGUACUUUCGGAGCGACAUGAGGAUCACCCAUGUAUAUUGAGGAUAUCCACUGCUAAGGACGGGAGAAGGCAGUGUACUGU [Ex NG3 #82] (Eterna round: R96, puzzle: Exclusion NG 3)
- apparent KD of MS2 coat protein (input ligand: FMN 200 uM): 0.0733 µM
- apparent KD of MS2 coat protein [4]: 0.0429 µM
- apparent KD of MS2 coat protein (input ligand: none): 0.0542 µM

Sequence: GGGAUGUCAGGAUAUCCGAAAGUCUACCAAUACGGCAGACAGGAGAAGGGACAUGAGGAUCACCCAUGUAAAGA [Quatma] (puzzle: Exclusion 4)
- apparent KD of MS2 coat protein [2]: 0.114 µM
- apparent KD of MS2 coat protein [1]: 0.0367 µM
- apparent KD of MS2 coat protein [3]: 0.0524 µM

Sequence: GGUCUGCGAGGAUAUACAUGAGGAUCACCCAUGUGCGAGAUACUAGUGAGGUCGAUUGGUAGAAGGCGCGGACA [Mat - Exclusion 3 - Mod of JL D84] (puzzle: Exclusion 3)
- apparent KD of MS2 coat protein [1]: 0.0904 µM

Sequence: GGUGUGCUAGGAUAUGCUUUGGGCUCGCUUACCUUCGUUUUACUUGAGGAUCACCCAAGUAGAAGGUGCUUGCC [salish99_ex2_r4_039] (Eterna round: R97, puzzle: Exclusion 2)
- apparent KD of MS2 coat protein (input ligand: FMN 200 uM): 0.0131 µM
- apparent KD of MS2 coat protein (input ligand: none): 0.0124 µM

Sequence: CAUGAUUGGGAAGGAUAUUGACCUAGUUAGCGCCGAGAAGGUCCCUUUCACAUGAGGAUCACCCAUGUGAGUCUGGUGUUCGAG [Ex NG1 #96] (Eterna round: R96, puzzle: Exclusion NG 1)
- apparent KD of MS2 coat protein (input ligand: FMN 200 uM): 0.0377 µM
- apparent KD of MS2 coat protein [4]: 0.0268 µM
- apparent KD of MS2 coat protein (input ligand: none): 0.0376 µM

Sequence: CUAUGGCAAGGAUAUACGUAUCAUGUGACGAUAGCUCAAGAACAUGAGGAUCACCCAUGUAGAAGGUGCGGAGA [Eternabot (L1) Solution 90] (Eterna round: R97, puzzle: Exclusion 2)
- apparent KD of MS2 coat protein (input ligand: FMN 200 uM): 0.0542 µM
- apparent KD of MS2 coat protein (input ligand: none): 0.0546 µM

Sequence: AAAGAACAUGAGGAUCACCCAUGUGAGGAUAUGUAAGGAUUGUGGAGAAGAAGAGAGAACAGAAGGCACGGAGG [JR_Exclu1_Sub068] (puzzle: Exclusion 1)
- apparent KD of MS2 coat protein [2]: 0.0368 µM
- apparent KD of MS2 coat protein [1]: 0.0321 µM
- apparent KD of MS2 coat protein [3]: 0.0449 µM

Sequence: UUAUUAUAUGUAGGAUAUGCAUAUUGUUGUUAUGCAGAAGGACAUGAGGAUCACCCAUGUAUAUUAUUGUUAUGUAUUAUAUAU [Title] (Eterna round: R96, puzzle: Exclusion NG 1)
- apparent KD of MS2 coat protein (input ligand: FMN 200 uM): 0.0647 µM
- apparent KD of MS2 coat protein [4]: 0.0233 µM
- apparent KD of MS2 coat protein (input ligand: none): 0.0372 µM

Sequence: GCAGUGCGAGGAUAUACAUGAGGAUCACCCAUGUGAGAAUAAGAAGUGAGGAAGAAAAGUAGAAGGCGCGUUGG [Mat - Exclusion 3 - Mod of Salish D66] (puzzle: Exclusion 3)
- apparent KD of MS2 coat protein [2]: 0.0775 µM
- apparent KD of MS2 coat protein [1]: 0.0364 µM
- apparent KD of MS2 coat protein [3]: 0.0596 µM

Sequence: GGAGAGGUAGGAUAUGGACCUUAGAACAUGAGGAUCACCCAUGUAGGACCACAUGAUUUGCGAGAAGGACCAGUCC [AK-MS2ROC-r4-exclusion5-7] (Eterna round: R97, puzzle: Exclusion 5)
- apparent KD of MS2 coat protein (input ligand: FMN 200 uM): 0.363 µM
- apparent KD of MS2 coat protein (input ligand: none): 0.655 µM

Sequence: CAGUACAGAGGAUAUACAUGAGGAUCACCCAUGUGUUCCAGCUAGGAGACUAGCAAGUGUAGAAGGCUGUACUG [Mat - Exclusion 3 - JL Mod - D8] (Eterna round: R97, puzzle: Exclusion 3)
- apparent KD of MS2 coat protein (input ligand: FMN 200 uM): 0.592 µM
- apparent KD of MS2 coat protein (input ligand: none): 0.405 µM

Sequence: UUUUAACAUGAGGAUCACCCAUGUGAGGAUAUCGAAAUUUAUAUUUAUAUUAAUUAUUCGAGAAGGCACAUUUU [JMF 85] (puzzle: Exclusion 1)
- apparent KD of MS2 coat protein [1]: 0.131 µM

Sequence: GAUUAACAAGCGAGAUCCCACAUGAGGAUCACCCAUGUGCUCGUCUUAUAAGGUACUGUGACGAAAGUCACGGUACC [Mat - Sensor, turn-off var - Eli Mod - D5] (Eterna round: R97, puzzle: Sensor, turn-off variant 1)
- apparent KD of MS2 coat protein (input ligand: FMN 200 uM): 0.0135 µM
- apparent KD of MS2 coat protein (input ligand: none): 0.0152 µM

Sequence: GUUGGAUGAGGAUAUCGAGGUUAGUACAUGAGGAUCACCCAUGUUAUCCAGGUGUCGGUUCGAGAAGGCAUUGGAC [LRO-Ex5-14] (Eterna round: R96, puzzle: Exclusion 5)
- apparent KD of MS2 coat protein (input ligand: FMN 200 uM): 0.104 µM
- apparent KD of MS2 coat protein [4]: 0.0278 µM
- apparent KD of MS2 coat protein (input ligand: none): 0.0347 µM

Sequence: CUCAUACAUGAGGAUCACCCAUGUGAGGAUAUACUCCGCACCACACAGGUCGGGUAGCGUAGAAGGUAUUGGGU [Eternabot (L1) Solution 85] (Eterna round: R97, puzzle: Exclusion 1)
- apparent KD of MS2 coat protein (input ligand: FMN 200 uM): 0.0963 µM
- apparent KD of MS2 coat protein (input ligand: none): 0.168 µM

Sequence: UAUUACAAGCGAGAUCCUAACAUGAGGAUCACCCAUGUGCUCGUCUCAUAUAGGACUAUCACGAAAGUGAUAGUCCA [Level Boss var2-01] (puzzle: Sensor v3, turn-off variant 1)
- apparent KD of MS2 coat protein [2]: 0.0215 µM
- apparent KD of MS2 coat protein [1]: 0.14 µM
- apparent KD of MS2 coat protein [3]: 0.0152 µM
